{"source": "patent US20150359847A1", "about": "“METHOD AND COMPOSITION FOR CONFERRING NEUROPROTECTION” (BLOOD SYSTEMS RESEARCH INSTITUTE, priority 2014, published 2015)", "molecules": {"B1": {"name": "TIMP3: Recombinant tissue inhibitor of matrix metalloproteinase-3, a soluble protein released by MSCs, obtained from Amgen Inc. (protein)", "chain": "CTCSPSHPQDAFCNSDIVIRAKVVGKKLVKEGPFGTLVYTIKQMKMYRGFTKMPHVQYIHTEASESLCGLKLEVNKYQYLLTGRVYDGKMYTGLCNFVERWDQLTLSQRKGLNYRYHLGCNCKIKSCYYLPCFVTSKNECLWTDMLSNFGYPGYQSKHYACIRQKGGYCSWYRGWAPPDKSIINATDP"}}, "key": {"hippocampal neurons": {"test_system": "hippocampal neurons", "experiment": "Neurite chamber assay (AXIS axon isolation device)", "type": "cell-based, mouse", "conditions": "7 days treatment with TIMP3", "protocol": "For AXIS™ Axon Isolation devices, chambers were first sterilized from one side of the groves to the other under flow gradient with 70% ethanol to avoid trapping air in the groves. Afterwards the slides were completely immersed in 70% ethanol for 5 mins. Upon removing the slide from the ethanol bath, chambers were washed twice with PBS under a flow gradient to flush the chambers, the procedure was then repeated with Poly-D-Lysine. Chambers were then incubated with Poly-D-Lysine overnight at 4° C. Prior to plating cells, chambers were flushed with ‘plating media’ (see tissue culture section). Simultaneous plating of the single cell suspension in both wells on side of the groves enabled equilibrium to be obtained and a sufficient number of cell remained in the chamber adjacent to the groves. Hippocampi from 2 pups were used per chamber. Cells were allowed to attach for 4 hrs before excess cells in the wells were detached using the rubber tip from a sterile 1 ml syringe, plating media removed and ‘maintenance media’ with treatments were added. Flow gradients were maintained throughout the culture steps and media exchanges were performed with this in mind."}, "[1]": {"test_system": "DCX+ve neurons in the subgranule zone of the dentate gyrus", "conditions": "7 days post-TBI", "description": "(§1) The mouse controlled cortical impact (CCI) injury model was used as previously described. In brief, mice were anesthetized with 5% isoflurane and 1:1 O2:N2 mixture. Animals were mounted on a stereotaxic frame and were secured by ear bars and an incisor bar. Anesthesia was maintained with 2.0% isoflurane and 1:1 O2:N2 mixture. A 5-mm-diameter craniotomy was made midway between bregma and lambda on the right side, with the medial edge of the craniotomy 1 mm lateral to midline. Injury was produced using a magnetic impactor mounted at an angle of 110° from the vertical plane. A single impact at a velocity of 4+/−0.2 m/s was used inflict a moderate to severe injury (1.2-1.3 mm impact depth). After injury, the incision was closed. Sham animals underwent identical surgeries except for impact injury. Core body temperature was monitored using a rectal thermometer and maintained at 36.8° C.-37.2° C. with a heating pad throughout the procedure. For treatments, TIMP3 (60.0 μg/kg) or vehicle control (PBS) administration was performed at 2, 24, and 48 hrs after injury via tail vein injections in a total volume of 125 μl. Animal research was performed with approval of the Institutional Animal Care and Use Committee at ISIS Services LLC (San Carlos, Calif., USA). […]"}, "[2]": {"test_system": "mouse model of controlled cortical impact (CCI)", "experiment": "Context-dependent fear discrimination in CCI TBI mice (Example 1)", "type": "in vivo", "conditions": "TIMP3 60 μg/kg IV x3; task day 2 (day 16)", "description": "as §1, with “μl.” for “μl. Animal research was performed with approval of the Institutional Animal Care and Use Committee at ISIS Services LLC (San Carlos, Calif., USA).”\nContextual discrimination was assessed in a manner similar to prior studies conducted by the inventors and others. […] Comparing the time spent freezing in each chamber during training assessed discrimination of the two contexts."}, "MMP-2": {"target": "T1, MMP-2 (Homo sapiens, UniProt P08253)", "T1 sequence (P08253 110-660)": "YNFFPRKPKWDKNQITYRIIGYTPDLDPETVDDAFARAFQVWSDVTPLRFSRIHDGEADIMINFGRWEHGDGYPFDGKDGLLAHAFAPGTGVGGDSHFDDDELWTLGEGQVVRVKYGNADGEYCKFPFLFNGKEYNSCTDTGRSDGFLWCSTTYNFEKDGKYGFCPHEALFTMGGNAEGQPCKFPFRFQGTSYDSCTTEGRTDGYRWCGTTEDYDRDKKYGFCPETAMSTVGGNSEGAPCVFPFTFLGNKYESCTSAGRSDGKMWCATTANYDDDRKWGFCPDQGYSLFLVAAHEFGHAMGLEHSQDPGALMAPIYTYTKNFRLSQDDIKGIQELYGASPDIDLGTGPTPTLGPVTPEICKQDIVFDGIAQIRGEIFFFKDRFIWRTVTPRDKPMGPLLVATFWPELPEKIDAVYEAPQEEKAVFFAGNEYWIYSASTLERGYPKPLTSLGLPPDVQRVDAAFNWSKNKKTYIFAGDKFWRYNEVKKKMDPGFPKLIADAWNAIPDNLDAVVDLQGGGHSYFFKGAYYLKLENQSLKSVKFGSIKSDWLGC", "experiment": "SensoLyte Fluorimetric MMP-2 Activity Assay", "type": "biochemical", "conditions": "dose response; 1 μg/ml TIMP3", "description": "SensoLyte Fluorimetric MMP-2 Activity Assay Kit™ (Cat#71151) and SensoLyte Fluorimetric MMP-9 Activity Assay Kit™ (Cat#71155) were purchased from AnaSpec (Fremont, Calif.) and performed per manufacturer's instructions."}, "SH-SY5Y cells": {"test_system": "SH-SY5Y cells", "experiment": "Hypoxia and MTT assay", "type": "cell-based, human", "conditions": "5 hrs hypoxia + 18 hrs recovery; 1 hr pre-treatment with 1 ng/ml TIMP3", "protocol": "MTT Cell Viability & Proliferation Assay™ was purchased from ScienCell, (Cat#8028. Carlsbad, Calif.) and performed with modifications. In brief, 2×10^5 SH-SY5Y cells were plated per well of a 12 well plate and differentiated for 2 days. Pre-treatments were conducted 1 hr prior to initiation of hypoxia. Control cells underwent media exchange. For hypoxia, cultures were placed in a hypoxia incubator chamber (Cat#27310. StemCell technologies, Vancouver, BC) and purged of regular air using nitrogen gas for 5 mins at a flow rate of 20 L/min, after which both inlet and outlet values were closed and the chamber was placed inside a regular tissue culture incubator. The chamber was re-gassed after one hour again for 5 mins at a flow rate of 20 L/min. After the hypoxia period, tissue culture plates were removed from the chamber and placed back into a regular tissue culture incubator for 18 hrs. At the time of assay 50 μl of MTT Solution was added to each well and incubated for 1 hr at 37° C. After incubation, add 250 μl of MTT solubilization buffer was added and […] of each test sample was transferred to a well of a 96 well plate. The absorbance was then read using a Polarstar plate reader (BMG Labtech, Cary, N.C.) at a wavelength at 570 nm. Background subtraction was carried out with values from an average of 4 wells of solubilization buffer alone."}}}
{"molecule": "B1", "values": [{"measurement": "neurite outgrowth in neurite chamber", "setting": "hippocampal neurons", "value": "increased neurite outgrowth"}, {"measurement": "DCX staining, contralateral side", "setting": "[1]", "value": "no significant differences on the contralateral side"}, {"measurement": "DCX+ve neurons, ipsilateral", "setting": "[1]; IV TIMP3 vs TBI", "value": "significantly attenuated"}, {"measurement": "discrimination between shock and safe contexts", "setting": "[2]", "value": "discriminated between the environments following training"}, {"measurement": "MMP-2 inhibition (Sensolyte FRET assay)", "setting": "MMP-2", "value": "can fully inhibit"}, {"measurement": "SH-SY5Y cell viability by MTT after hypoxia", "setting": "SH-SY5Y cells", "value": "prevents loss of cell viability"}]}
